Article PMC6650902

Target: TAF complex (TFIIDΔTBP) (S. cerevisiae) (UniProt P46677)

TATA-box binding protein (TBP), recombinant (from UniProt P13393 1-240) (natural protein)
topoisomerase I assay on pDrive/RPS5: linking number change (ΔLk) with TAFs and TBP mixed in equimolar amounts before the plasmid (TAF complex alone +1.91): 0.48
